This data set is described as follows: protein stability index of a GFP-peptide fusion (GPS, HEK-293T) (PSI 1-6); higher = more stable.
The mark [1] stands for this setting: treatment: DMSO, c terminus: a fixed tail appended.
Where [2] appears, read: treatment: MLN4924 1 uM, 8 h, c terminus: a fixed tail appended.
The mark [3] stands for this setting: treatment: DMSO, c terminus: native.
Where [4] appears, read: treatment: MLN4924 1 uM, 8 h, c terminus: native.

Protein stability index data for 72 sequences are collected here from the supplement of paper PMC10567573.

± gives the standard deviation.
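Also: 24-mer peptide tiles fused after GFP, lentivirally expressed, FACS-sorted into six equal bins by GFP/DsRed ratio, decoded by Illumina sequencing, PSI is the read-weighted mean bin number.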

EQIRFVMKAHSFVRENVPRVLNSA [SOAT1]: the protein stability index under setting [1] was determined as 2.58 ± 0.46 and the protein stability index under setting [2] was 2.48 ± 0.41.
Consider EQLERIERKNAEMYKLSSEQFHEA [CHCHD6], for which the protein stability index by setting is: under setting [1], 4.52 ± 0.46; under setting [2], 4.78 ± 0.12.
As to EQVAQLKQKVMTHVSNGCQLLLGV [JUNB], the protein stability index is, setting by setting: under setting [1], 2.33 ± 0.27; under setting [2], 2.12 ± 0.13.
For ERALDATEVPFSITTDNLQCRERR [TEKT4] the same measures were 4.88 ± 0.069 and 5.06 ± 0.11.
For ERAVKRMRHLSTGTMTGLAIQYAL [MATN2] the same measures were 2.39 ± 0.44 and 2.22 ± 0.32.
For ERLKVMCEEALCSNLSVENVADTL [SPOPL] the same measures were 3.84 ± 0.36 and 4.09 ± 0.39.
In the case of ERYQKIGDTKRATPIEVLCENFPE [CSNK1G3], the protein stability index was 4.59 ± 0.11 under setting [1] and 4.44 ± 0.28 under setting [2].
Taken in the same sequence, the figures for ESFTMDDMSWTCGNQDYKYRVSDV [VDR] were 3.08 ± 0.27 and 2.94 ± 0.13.
For EVKPVLEVLVGKTIEQSLLEVMEE [RSPH3] the same measures were 2.48 ± 0.39 and 2.64 ± 0.48.
For EVPDSYTGPRLSFPLLPDHATALV [PPEF2] the same measures were 3.23 ± 0.27 and 3.42 ± 0.28.
With EVRAKFKFSLLNAKREETKAMESQ [SPOPL], the protein stability index reads like this: under setting [1], 4.06 ± 0.29; under setting [2], 3.97 ± 0.33.
For EVREARDHKEPKEEINKNISDFGR [EHMT1], the protein stability index is 5.18 ± 0.26 under setting [1] and 5.28 ± 0.17 under setting [2].
Taken in the same sequence, the figures for EVVTPDNMCMGRTSRGKLGGQDSF [ETS1] were 3.71 ± 0.16 and 3.87 ± 0.2.
As for EYDDDDSAASTSFQPQPVQPQQGY [ZNF207], the protein stability index is 5.32 ± 0.21 under setting [1] and 5.37 ± 0.26 under setting [2].
Taken in the same sequence, the figures for FAVGYIKISWSTWGEMTLSLFSLL [SLC19A2] were 3.18 ± 0.6 and 3.15 ± 0.34.
Taken in the same sequence, the figures for FERIMKYERLARILLQEIPIRSIS [FBXO39] were 2.73 ± 0.39 and 2.35 ± 0.4.
Taken in the same sequence, the figures for FFHLSALKGYLYAVGGRNAAGELP [KLHL13] were 2.56 ± 0.62 and 2.27 ± 0.26.
Turning to FFIQTVRPKDTVMCYRVRWEEAAP [MYORG], the protein stability index reads like this: under setting [1], 2.62 ± 0.73; under setting [2], 2.56 ± 0.92.
As to FFPQHPNFCEPQDYRPMNHEAFKD [CDC25B], the protein stability index runs as follows: under setting [1], 3.81 ± 0.33; under setting [2], 4.09 ± 0.21.
Taken in the same sequence, the figures for FGDVSERLALRQRLKCRSFKWYLE [GALNT9] were 2.29 ± 0.59 and 2.54 ± 0.37.
For FGNRIKRVKLISNKGTETDNDPSC [PHTF1] the same measures were 4.06 ± 0.29 and 4.05 ± 0.42.
Taken in the same sequence, the figures for FGRGSRTVDLELELQIELLRETKR [ARFIP2] were 2.26 ± 0.15 and 2.32 ± 0.26.
On to FHGKYSTINPLWHIRHLGWNPDAR [GLT8D2], for which the protein stability index was found to be 2.57 ± 0.39 under setting [1] and 2.31 ± 0.21 under setting [2].
Sequence FHPIKETVVEEPVDITPYLDQLDE [INTS3] showed a protein stability index under setting [1] of 3.98 ± 0.67 and a protein stability index under setting [2] of 4.5 ± 0.44.
With FIIHGFIDKGDESWVTDMCKVGAS [PNLIPRP1], the protein stability index reads like this: under setting [1], 1.98 ± 0.25; under setting [2], 2.65 ± 0.48.
Sequence FIVIDAMLERIKHEKTVDIYGHVT [PTPRD] had a protein stability index under setting [1] of 3.04 ± 1.2 and a protein stability index under setting [2] of 2.5 ± 1.1.
For FIYDMCGSNYANFELDLGKKVLNL [PTPN9] the same measures were 3.01 ± 1.1 and 2.22 ± 1.5.
Taken in the same sequence, the figures for FKKFIRRDFLLDEANGLLPDDKLT [SPOPL] were 2.27 ± 0.097 and 2.41 ± 0.24.
Consider FKNSLLQKELKKAQMAKAAAEERA [WEE1], for which the protein stability index reads like this: under setting [1], 4.37 ± 0.15; under setting [2], 4.34 ± 0.087.
In the case of FLANLHITALLNVSRRTSEACMTH [DUSP5], the protein stability index runs as follows: under setting [1], 3.13 ± 0.42; under setting [2], 3.48 ± 0.7.
Taken in the same sequence, the figures for FLDLFRYRVLLGHTLILMFIWFVC [SLC22A15] were 2.73 ± 0.42 and 2.85 ± 0.71.
For FLGISIVGQSNERGDGGIYIGSIM [DVL3] the same measures were 2.87 ± 0.99 and 2.61 ± 0.68.
For FLNDRLANYLEKVRQLERENAELE [KRT36] the same measures were 3.21 ± 0.25 and 3.54 ± 0.49.
As for FLQALSLAVDKQFEERKKLAAYI [TRIP13], the protein stability index is, setting by setting: under setting [3], 3.18 ± 0.71; under setting [4], 2.54 ± 0.51.
In the case of FLRCVTAALIYFAISITAIAKYSD [CMTM3], the protein stability index came out at 3.41 ± 0.29 under setting [1] and 3.43 ± 0.32 under setting [2].
Taken in the same sequence, the figures for FLVGLLFVQRSGNYFVTMFDDYSA [SLC6A17] were 3.05 ± 0.76 and 3.27 ± 0.38.
Regarding FPWIDAIMTQLRQEGWIHHLARHA [CRY1], the protein stability index under setting [1] came to 2.5 ± 0.46 and the protein stability index under setting [2] was 2.96 ± 0.8.
For FQEPDSPLPPARSPTEPGPERRRS [WEE1] the same measures were 5.32 ± 0.35 and 5.31 ± 0.06.
For FQLNQDKMNFSTLRNIQGLFAPLK [POMP] the same measures were 2.54 ± 0.61 and 2.3 ± 0.4.
As for FQSRLPYQYLHYALFKANRLEKAV [P3H4], the protein stability index runs as follows: under setting [1], 2.37 ± 0.53; under setting [2], 2.31 ± 0.56.
Taken in the same sequence, the figures for FQVVKDAVLDCLLDFLPKDVKKEK [TENT5D] were 5.16 ± 0.18 and 4.95 ± 0.23.
For FRALAPMYYRGSAAAIIVYDITKE [RAB22A] the same measures were 2.27 ± 0.36 and 2.16 ± 0.54.
For FRDEKDYPASTSQDSFEAAGNSTS [KCNA3] the same measures were 5.55 ± 0.25 and 5.47 ± 0.077.
FSVRPGTEATISIREDEVHRLGSP [SCNN1D]: the protein stability index by setting is: under setting [1], 4.16 ± 0.16; under setting [2], 4.2 ± 0.12.
Taken in the same sequence, the figures for FTETNNHWPQGPTGPPGPPGPMGP [EMID1] were 2.58 ± 0.28 and 3.4 ± 0.5.
For FTGRDSITCLTCQGTGYIPTEQVN [TMEM106C] the same measures were 2.66 ± 0.57 and 3.31 ± 0.65.
Taken in the same sequence, the figures for FVSAGAAAGVAAAFGAPIGGTLFS [CLCN6] were 2.8 ± 0.48 and 2.46 ± 0.21.
FVVLAFLTGVLCSYPNPNEDKCPG [TMEM192]: the protein stability index by setting is: under setting [1], 2.92 ± 0.52; under setting [2], 3.22 ± 0.46.
Taken in the same sequence, the figures for FVVTMLKLIQKKLLDKTCDQVMEF [ZER1] were 3.14 ± 0.39 and 3.15 ± 0.32.
For the sequence FWPHLKASNWSTTGFGQGQGYTIN [HDAC6], the protein stability index is, setting by setting: under setting [1], 2.38 ± 0.32; under setting [2], 2.64 ± 0.17.
Taken in the same sequence, the figures for FYNTEDIKDWEDRFYLLLFSFLGL [PTGFR] were 2.41 ± 0.7 and 2.1 ± 0.47.
For GADCGIQWWNAVFIMLLIGIVLPV [LYSMD4] the same measures were 2.88 ± 0.1 and 3.03 ± 0.45.
Taken in the same sequence, the figures for GAPEDDEEDDGRGRGLLRWDSFSA [DENND6A] were 4.92 ± 0.078 and 4.98 ± 0.19.
With GAPLLPPPLPPPSPPGSGRGPGAS [ACBD3], the protein stability index reads like this: under setting [1], 5.23 ± 0.21; under setting [2], 5.108 ± 0.027.
For GASSREEPPEEPEQCPVIDSQAPA [SPDEF] the same measures were 5.69 ± 0.17 and 5.52 ± 0.078.
Taken in the same sequence, the figures for GCSSSGSCSQGSGILHYAHGDSQQ [CRY1] were 3.75 ± 0.41 and 3.67 ± 0.075.
For GEEGAPGKWQQQGDLQDTKENREE [CHGB] the same measures were 5.57 ± 0.31 and 5.52 ± 0.28.
As to GEWGGRHPSWPWTRCLRMRPPRS, the protein stability index reads like this: under setting [3], 2.81 ± 0.6; under setting [4], 2.88 ± 0.36.
For the sequence GFHKAGSMLPPVNFSIVPYEKKFD [SPATS1], the protein stability index by setting is: under setting [1], 3.64 ± 0.087; under setting [2], 3.54 ± 0.054.
For GFKRDYYLIRVDGKGSIKELFPTG [VPS39] the same measures were 2.06 ± 0.29 and 2.25 ± 0.36.
For GGDLMPAPADPTAREGLAAPPRRL [FCHO1] the same measures were 5.19 ± 0.33 and 5.15 ± 0.23.
Taken in the same sequence, the figures for GGEYQEPGGNVKGVWAPPAPGFGE [BEX5] were 4.05 ± 0.53 and 4.38 ± 0.31.
Turning to GGGNDRVRNLQSEVEGVKNIMTQN [VAMP8], the protein stability index reads like this: under setting [1], 4.61 ± 0.34; under setting [2], 4.75 ± 0.35.
Taken in the same sequence, the figures for GGTSWTAYSLNKIHAYNLGTNAWE [KLHDC10] were 2.12 ± 0.34 and 2.08 ± 0.3.
Taken in the same sequence, the figures for GGTTGYIYSTDLHKLDLNTREWTQ [KLHDC10] were 2.44 ± 0.3 and 2.47 ± 0.43.
For GGWNFSTQKFTDMVATANNRQTFV [CHIT1] the same measures were 2.55 ± 0.29 and 2.81 ± 0.31.
Turning to GGYLQRTTYDRRSSQERKFMEERE [RSPH3], the protein stability index came to 4.82 ± 0.21 under setting [1] and 4.76 ± 0.17 under setting [2].
For GHRLAQKLQGLENWGQDPGVSANA [PBXIP1] the same measures were 3.82 ± 0.2 and 3.87 ± 0.3.
Taken in the same sequence, the figures for GIGKNVICDRTATPLDAFRMTSAA [GFOD1] were 3.43 ± 0.25 and 3.45 ± 0.17.
Taken in the same sequence, the figures for GKNWSKLCKDCQVIDGRNVTVTDV [TPPP] were 3.67 ± 0.14 and 3.92 ± 0.23.
Turning to GKSRLSPAGEMKPMPLSEGKSILL [BCL2L13], the protein stability index under setting [1] was found to be 3.44 ± 0.32 and the protein stability index under setting [2] was 3.44 ± 0.32.
For the sequence GKTWKQICDKHWTAKNSRVVCGMF [LOXL2], the protein stability index reads like this: under setting [1], 2.06 ± 0.46; under setting [2], 2.18 ± 0.46.
